In the DeepSol protein solubility set:

Assay: soluble on expression in E. coli; label from the status in PepcDB or PDB records

Sequence	soluble on expression in E. coli
GMSWEKSGKEGSLLRWYDVMEAERYEYTVGPAGEQFFNGLKQNKIIGSKCSKCGRIFVPARSYCEHCFVKIENYVEINKDEAYVDSYTIIYNDDEGNKLAQPVYIALIRFPNIEGGLLCYAEGNVKVGAKAKILSFQWPLRVKVD	soluble
GMVEVSQFKDAMAQLASAVHIVTTSGETGQHGFTASAVCSVTDSPPTLLVCINSNARAYEHFVKNRVLMVNTLTAEQSSLSNIFASPLSQEERFSNASWTTLTTGSPMLQDALINFDCEITEIKHVGTHDILICKIVDIHQSNAKNALVYRNRVYHSV	soluble
GMYQTIEGFLQSWTYETESTQKMLDVLTDESLSQEIAPGHWTLGRVAWHIVTAIPVILSGTGLKFEGETKDYPVPTSAKTIADGYRKVNTAFVEALQSEWTDKDLTTINDFFGRPMPNSIFLMTLINHQNHHRGQMTVLMRQAGLTVPGVYGPAKEEWATAGMEAPKM	soluble
GPEAERAEMLAWFDRINAERRRAGMVAVLTRRCNLACPYCFEGGQAPEGDMSEETADLLAAMIEREYLAKGWRVDMDFYGGEPLLRPDLIRRIAEPLRAAGGGLFHGNMVSNGSLLNRAVMTDLTALGIESVKVTLDGPPQVHDRYRPYGGGAGSFHDILRGMGEVVDLVKIHVGGNFTRETWREYPALLDLLLAEGFTPDRLGTVRFTP	not soluble
GPGHAGIFTFEEPVTHVSESIGIMEVKVLRTSGARGNVIVPYKTIEGTARGGGEDFEDTCGELEFQNDEIVKTISVKVIDDEEYEKNKTFFLEIGEPRLVEMSEKKALLLNELGGFTITGKYLYGQPVFRKVHAREHPIPSTVITIAEEYDDKQPLTSKEEEERRIAEMGRPILGEHTKLEVIIEESYEFKS	soluble
GPGSGDPYWAYSGAYGPEHWVTSSVSCGGSHQSPIDILDHHARVGDEYQELQLDGFDNESSNKTWMKNTGKTVAILLKDDYFVSGAGLPGRFKAEKVEFHWGHSNGSAGSEHSVNGRRFPVEMQIFFYNPDDFDSFQTAISENRIIGAMAIFFQVSPRDNSALDPIIHGLKGVVHHEKETFLDPFILRDLLPASLGSYYRYTGSLTTPPCSEIVEWIVFRRPVPISYHQLEAFYSIFTTEQQDHVKSVEYLRNNFRPQQALNDRVVSKS	soluble
GPGSMAAVPPQKAANIAQRLQPQCATVGPATLRMSAGKSLKIRENAMYSNMPPPTAFTTPCSATNAGPVMEVCVPFIVMTPIAMPRGTETEKIIVITTSSMTLMEASTSREPSAIPSNSWWNDNATSSVLMSLSLAIPTERPKNTLCEAKPNSIKIAAATRLALFR	not soluble
GPGSMADFPKLARIKLDDENMEKIHCAARKGQTEEVKRLVEQGIDPAIPNRFGCTALHLACKHGQIETAKYLSSICDVHGAWHGQRPLHLAVLSNKEVLVEALVEGARERGRNVEIMLNECDDVSVDDIGEHQKHTDGQTALHWCVALGDNYLPMLRLLIRLGASPTAKNKENVTSMMYAMEFKNEAAMEEMVKGVKPQQLRLDYQDKEGRTHLHYAILHNRQDYAMRFIEMGHDPQMEDDNHETPLFLALRAAMPDLLTYLLQNVDSFSVQQAPFHNGSVMVAERIQWLEFATDEQARTECIRLFQKRLDEVSFRPEETEKKRAKPTVKKMKLAPSAPLRSRSIGNASALRSRSIGGRISGK	soluble
GPGSMAELHVIGDLAFGEDFGGKSYFCAFEIVTGEHWRVVEGHTSGCTHIMESDSCGGIAWCFPIDVHYTMGSVEGWPKISMQVWSVDGYGRKDLAGYGVAFVPPPGGEEQEVNVETWKPCFWNPNFFIRLYENLREAVMGGGPVLCDKTMIHTNDERFKLRTISSGSVRLHLNVVARGMERLGVRCA	not soluble
GPGSMANGVTANSMRVNVKAPDLGAFPLDHYSECKSQVEAYYRCLKSNEYVTPLCRDQMREYLQCRMDRGLMKPADLDGFGIPKTEFVPTRQHRIDLKQQWLRQKMNQVTVVWEENYRRDDLQVPDGYEREKGGGDGGGGNPKPVGEKVNT	not soluble
GPGSMASFDMLREDILDVFNVFDEEGTGSISMQELTRAIYTITGTRISRSDLRSLVQAVQEEMKEEAHARKTPLGVDLPPRANSLETSISPNADGENDAVDSSLFVAVVLKTLNRHTYEQELLFTFHLLEDKNYPGFITKDSLKKAAAEMEEHLTDQEVNEMFDKLVTGISSSAVDFTTFTSVLEAAKRMDD	soluble
GPGSMCNDDARQEGVQWPSSQQLAALADIEGDVQMKAAQLGLLSSEYRANIARVLHHYEPQAATFRTIIYASEQKRKAVERELVWTERIALLQEQRCGTTIVSTRDLMVLEREPLHPVECSLKECYQKLENVAYNELCVLRNYEYPPRQAVATMRMIMRVRGEEDLSWENVQVVLSENYFYTFFVSRMRTLLQKRLPDDVLEELEQYCLNPEHAPEALAVVSVPLGVIGSLLHAVRDYFQVMDLVKRPVEPMSVEERRKKAGELRRALQTLKEDAATATEGMADLKARIASKFVTVRDEYDDTMCPLHDDLEKKTEDFLKVLSGDIPAEEGATGEGECPDAM	not soluble
GPGSMCSGLTAFLVDFVQVVPGQTQTSFQTAAPEDSDPGVYDPNTRSWSGTDGLRYRVPLFPIPSERHTREKVRHVKILMDNCRHICISDELPATKEEKRFWASYRFIQYQLFLAPACVVTPPVYVFFKMFHDKLPHFLRGRTMPILTGLAVAEMWAEATYPSHQLLSMALRAKTPMGDAARAEWTRLQPIDIPFYIFSSYQFQQLFYAVPEEYLFGGDLASLCG	soluble
GPGSMCTAHSQSYLPLPPPTRTSTHTLTANVTQLRCRRRCVTPAIRTSRPPPAVAPPAALPAAHRPCICLLLHDLSPLPLLVLPPSLPLCAAPLHAAAHLPSHRTPSRPPMSAYHSSNPVEARRAECARLQAKYPGHVAVVVEAAEKAGSKVHFLALPRDATVAELEAAVRQALGTSAKKVTLAIEGSTPAVTATVGDIADACKRDDGFLYVSVRTEQAMGGIAGLCFASDSGGI	not soluble
GPGSMDPTLKELLHANLEWIFVGGKGGVGKTTTSCALATLFATTPISDAASPGGTRPRRVLLISTDPAHNLSDAFNQRFGPHPTPVKGLEESLAAMEVDPKNFTHGALMSSLTGAKSDGSASSLSAEAEADAAQHTASFARIGAVLKEAARTMPGIDEISVFAEILHYVRTLFYDLLIFDTAPTGHTLRLLALPQTLSSTFDKLMSLEGLAPMIEAASHLIGTNLGALGGACGDTAGSCEQATAAPSLSSAAPGEGSAAAASSQSRWCITADEVRSTALHWRQTMEEVQARFNDPNRTSFVCVCIAEFLSVYETERLVQELMKYNIGCDSIVVNQLVLKPSSEPPCRMCSARQKIQAKYLEQIDLLYEDFHVVKMPLLSDEVRGVPALKKFARFLQEPYSPDTHGYIDVQEPC	not soluble
GPGSMDTQGIRAVSEYVARGHGSGIVWAWCAASPAAFASMINSPSRTRQAAHERSVHYLSSYEQKSGCVCTVRVDRMGITLNEFHHTVPLWLVTWHTQLLYRLFGPVGVAVHVTDLDSLVLNSLLSAWEGTPVQVTALTSRHRLSTCVSAHRRSTGRVFSVLAGLQDLVLLPSPSVHGSLVVAEYAPLLRRVTASKCCVEYLKPLSQLQHLQEVQLSQTLIRDAELRILAQLPLLTTLDVSSCPHLSSLEPLACAASLRILRASSCERLMLVAQLGTLATLRIVDLSGNVFRPTEFASFITQPTLHLQAGYFAHMRWPRDDPPSTQVLGSVKHLHLSYGTVPNIRWLCGAHSLEQLCLDHTNVTAVDMAVLVQHTPLLSVLSLSYCEHLHTNLDFTRSLHFLAMLTITRSSLPSPFLELVELQQSLSLTLS	not soluble
GPGSMDYNLEYSEEQREYLERVGMREYLETFVAEVVRQKPNDIYAFLHDWASAHCQKQTKMTPTEASIKIQCAQRQNLAIKEMRSRQRKVNELLEQEETERVGKVEMEG	soluble
GPGSMFFYQRRLASGLPVRFLSLRAWRSSPENFRKTSAFLKALKAKTPAAGVSAEGFGARPVVVITGGERGIGKEVVHQLLREGVDVILCCPFEAEALRTIARLKARVSNSRVHFVKLDLNDEESVRECAAEVLGMTPRIDVLINNSGLVSPLSHKLNKRGYEVVLSINFLGHVLFTELLLERVKASGPSRIVNVASLMHLDACVEGPCKTALDVMAANCDPTSPHHTRNYSLSKLLLVCYTRDLARHLRGTDTAVATLHPGVVITDIYAFAVIFMRVFFRTVFKFPGEGAEVVLYCALADNIRSGSFYADCAEYNSLLSPLAVDDAHNERLRRVLLRYFALDGSKPTGKSLADVVQSTP	not soluble
GPGSMGVVLRELRMRQESATFLLAAVSVNPLLRCAWEDLACLVSRETQLAELDAALDGLEPFFMVDIFAAEVRGLLGVTPVSSARLRIAAAAASAPSDGFEPSPPCSAPPEGHAATTTATAAKAGTRTSPLLPPPRTNAGATPPIPAAALSNAWECFSLLFPDTPFCLSQLAHFYYHQRNRLDRAEALYQRIRALDPHYLAILYDYSNVLYTKRDRLGLSSLAQSVYQADAFRAETNFAVGNYYVLLGQHDRAALHFHRATAIDPQCAEAWLLLGHAYVEVKNTTAAVEAYRTAVELNERDYRGWYNLGQIYELLEAYHHALYYYWHTTSLRPADPGMWVAVANCLEHDGRIAESIACLERAETYDSSSSPSYPAYVRRIATHHIANSSYTRACVYLEKLAQSPAASTEDLLLALPFIVQHYVQRARSSVEGFARSSSYDTVLFSPGANNVSLMSSPASGAVAAGRTALHHARAAAALQHLNKAEEHLSTMAELVMPSGHNGAGNEEAAQTPATSAAAGESEQGGAENTAPQRAAEDAPHRRRTRQPRSGAAANASVSASASAALAAVAASTAPSAGDVPPVAFVRSRHQEIGMLRAQAMHLLQIGAGASGSTIPVAASASASVATQPSSSSSQQQQQQQQQRHQQHRNPFVSQLLGRYQ	not soluble
GPGSMHPRLSGQGVFPRYGGGWMHQFGHVYALQQELLNAEANNWFRAMELWHTARHEGVAMNVSHYTNILRQCVPPTAWEASLMVLKQMRRENIRPDVVGVGCALAACADANRSEEVEKVFSCFSGKLKLDSICYLALIKAKMSRGGYAEALAVGREQDADGVPFLPHTYTHLLEAAEVADDGEMALELARRMSSEQWPVSDRGREALKKLSTRHHWEEVAEYKQFVAVEDHKLSLPPTLPRG	not soluble
GPGSMIMKASGAAVLHAVREKMQEATVAALIVTSSDAHNSEYVATHLQSRAFISHFQGSAGTALITMEKALLWTDGRYWLAAEEEKYPEFDLMKQGQPEVPSLEEWIAANLGSKAVVGMSPYVATVAEWERLSKKINLRPVANIVQDMMPPEKSVRKMYVRPAEFCGATCQERRAAILAELEKKDCDMIILSALDEIAWFTNLRGGDVDYNPVFYAYAVIDKHYENVRLYVNLDKVTDAVRQACEDHIDFYPYEQFEADLKQLPRGRKALVDERQTSEAVFRILKDVGTVTVRVVCGPAQKLKAIKNEVELKGFRDCHVRDGAALTRYLAWLHDQVANKGVTDLNEYDAATKLEEFRAQGEHFVQLSFGSISSIGPNGAMCHYSPAETGSAAIRRDQLYLIDSGAHYWDGTTDVTRTICFTAPSDEQREAYTLVLKGHIALNSIIFPKGTSGVRLDTLARMALWGVGLDYAHGTGHGVGSFLNVHEGPHGISTRPVATGANMELHSIVSNEPGYYKDGHYGIRIENLEEVVECRTKYSATGFYTMSHLTMAPLCRDLIDVSLLTETERAWVDRYHAKVVASIMPHLQQAGDQNAVEYLKYHTRPLFAVNEAYTLLSPDGKGAK	not soluble
GPGSMKEIILYTRPNCPYCKRARDLLDKKGVKYTDIDASTSLRQEMVQRANGRNTFPQIFIGDYHVGGCDDLYALENKGKLDSLLQDVH	soluble
